Biological target: growth hormone secretagogue receptor (GHSR) (mouse (endogenous in pancreatic delta cells)) (UniProt Q99P50)
UniProt Q99P50, sequence (Q99P50 whole entry, stated change not applied): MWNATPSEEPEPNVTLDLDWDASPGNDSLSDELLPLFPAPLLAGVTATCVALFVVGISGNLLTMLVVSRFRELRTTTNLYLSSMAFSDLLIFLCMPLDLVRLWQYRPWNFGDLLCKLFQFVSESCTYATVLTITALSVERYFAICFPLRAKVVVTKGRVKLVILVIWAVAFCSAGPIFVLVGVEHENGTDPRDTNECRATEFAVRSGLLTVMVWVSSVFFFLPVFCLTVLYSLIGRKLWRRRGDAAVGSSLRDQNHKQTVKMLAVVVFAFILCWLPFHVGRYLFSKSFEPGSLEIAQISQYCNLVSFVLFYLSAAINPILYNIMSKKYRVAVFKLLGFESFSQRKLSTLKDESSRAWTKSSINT

SST release from perfused mouse pancreas at 12 mmol/l glucose, 1 and 100 nmol/l ghrelin, fold increase: 2.7 fold
Substance: Mouse ghrelin (peptide)
